± gives the standard deviation.
Experiment: protein stability index of a GFP-peptide fusion (GPS, HEK-293T) (PSI 1-6); higher = more stable
Conditions: c terminus: a fixed tail appended
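Further: 24-mer peptide tiles fused after GFP, lentivirally expressed, FACS-sorted into six equal bins by GFP/DsRed ratio, decoded by Illumina sequencing, PSI is the read-weighted mean bin number.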

Sequence | protein stability index (treatment: DMSO) | protein stability index (treatment: MLN4924 1 uM, 8 h)
TSLEITILTSQPGKEVVKQLEEGL [M1AP] | 2.74 ± 0.22 | 2.68 ± 0.2
LGALHTSSKPTALPSASSAYFPGQ [SASS6] | 3.59 ± 0.29 | 3.67 ± 0.45
EQDAACGFCFFNSVAVAARHAQTI [HDAC6] | 1.99 ± 0.83 | 1.95 ± 0.21
SSRQEKRPLCAQGDWHSPTLIREK [ELOA2] | 4.05 ± 0.24 | 4.23 ± 0.25
RKMSLLKFLAKVNGSDPRSFPLWY [MAGEA10] | 2.38 ± 0.63 | 2.01 ± 0.22
SQVQVSLEDYINDRQYDSRGRFGE [HNF4A] | 4.01 ± 0.14 | 4.18 ± 0.14
LRTTVHHAFPVVTENRGNEKEFMK [CLCN6] | 4.05 ± 0.27 | 4.38 ± 0.098
FDVETRHVFIGDHSGQVTILKLEQ [WDFY2] | 2.2 ± 0.44 | 2.43 ± 0.33
LGAQTQFDVKNDRYIVNGSHEANK [EIF5] | 4.8 ± 0.3 | 4.77 ± 0.2
YLLQFARKPVEAESVEGVVRILLE [INTS4] | 2.19 ± 0.24 | 2.27 ± 0.25
RLHLAFKRQVPTEQARAYAEKNCM [RAB40C] | 2.98 ± 0.15 | 3.1 ± 0.26
ERNNIAVRKSRDKAKRRNQEMQQK [CEBPD] | 3.79 ± 0.9 | 3.31 ± 0.37
MNSLLIGELSPEQPSFEPTKNKEL [FADS1] | 4.26 ± 0.091 | 4.8 ± 0.21
VYCGAGVQKEHEEYMKNLLKVGGI [PCMTD2] | 2.75 ± 0.22 | 2.9 ± 0.28
KDLNENLAATQGLAHMIAECKKLF [DLC1] | 2.39 ± 0.45 | 2.3 ± 0.34
KKIRQVIRKYNYVAMDTEFPGVVA [CNOT7] | 2.79 ± 0.35 | 2.24 ± 0.28
ARYTMPSSLLAPAKHLIASMLSKN [PLK2] | 2.51 ± 0.39 | 2.91 ± 0.72
SIPNLAEVKKKGKMKKLGQAMEED [HDAC6] | 4.8 ± 0.088 | 4.86 ± 0.44
LMRAQRNYMVQTEDQYIFIHDALL [PTPRD] | 2.48 ± 0.46 | 2.41 ± 0.53
LEYRFYEQLGSGDGIPQVYYFGPC [CSNK1G3] | 2.19 ± 0.29 | 2.13 ± 0.2
TEFTLGDDKHYGGFTNKQLQSGQE [PTPRD] | 4.91 ± 0.2 | 4.77 ± 0.13
CTLGDPNKLPEGVPQPARMPYISD [KLHL20] | 4.13 ± 0.24 | 4.18 ± 0.15
IFQEKHVNLLHIESRKSKRRNSEF [TPH1] | 3.06 ± 0.25 | 3.27 ± 0.28

Sequence | protein stability index (treatment: DMSO) | protein stability index (treatment: MLN4924 1 uM, 8 h)
SSAGSVSPRSTSVTTTSSASVTTT [KRT13] | 5.25 ± 0.15 | 5.23 ± 0.12
RPRTRKVKSVSPQGNSVDRMAAPR [NCF4] | 4.85 ± 0.15 | 4.795 ± 0.046
VLEIEQSMNRVKNISDADVHNAMD [FEM1B] | 4.13 ± 0.14 | 4.32 ± 0.23
LVYVAAFSIGLGPMPWLVLSEIFP [SLC2A12] | 3.22 ± 0.44 | 3.19 ± 0.7
RNVRFSDEGGFTCFFRDHSYQEEA [MOG] | 3.54 ± 0.35 | 3.75 ± 0.59
RRGIALIFNHERFFWHLTLPERRG [CASP6] | 2.75 ± 1.6 | 2.04 ± 0.68
SAHRALYRRHVLGIVLQGPALCFA [TMEM175] | 2.71 ± 0.62 | 2.58 ± 0.62
LVVHTGCKDFLCQFCAQRFGRKDH [PLAGL1] | 2.6 ± 0.34 | 2.98 ± 0.091
TEDEKKELENLAAMDLELQKIAEK [CHGB] | 5.47 ± 0.22 | 5.57 ± 0.083
GVVVEDGVCIRRCTVLRDARIRSH [GMPPB] | 2.83 ± 0.19 | 2.75 ± 0.33
QLQHEKAELEQHLEQEQEFQVNKL [CCDC6] | 5.35 ± 0.19 | 5.41 ± 0.24
SINAGSWMWLSCSSFFQQFFHCYC [CRY1] |  | 3.4 ± 0.11
KWLSCGFMLEIVTPTSLSSLSNAV [FBXO33] | 3.04 ± 0.57 | 3.57 ± 0.76
VARILIDLCSDVNVCSLLAQTPLH [RIPK4] | 2.65 ± 0.26 | 2.57 ± 0.4
PTHTPRPADFSLGSLPGPGQTSGA [VENTX] | 4.44 ± 0.18 | 4.5 ± 0.2
EPNTLRAPRVRTAFTMEQVRTLEG [VENTX] | 3.98 ± 0.39 | 3.85 ± 0.21
TVEPGKLDVGATEGQDLQHISNQK [DRICH1] | 5.43 ± 0.23 | 5.4 ± 0.4
CEEVKMTVASEAKIQLSDSEAKSH [FAN1] | 5.46 ± 0.17 | 5.47 ± 0.074
EAAAAEEGLRELQRSRRLCHEDVE [DAPK3] | 5.29 ± 0.23 | 5.4 ± 0.45
VSHVGWDPQNGFDVNNLDPDLRSL [WAS] | 3.9 ± 0.24 | 3.98 ± 0.3
MRQDLEEERVALNTEIEKLGRSIV [PKD2L1] | 4.29 ± 0.13 | 4.38 ± 0.23
DFKSCPQGPQGREGLAFLVSCPEG [PWWP2B] | 3.61 ± 0.15 | 3.75 ± 0.16

Source: the supplement of paper PMC10567573
